Test results published in US20210238262A1 (published 2021).

T1: Recombinant DENV-2 sE (1-396) from strain 16681-PDK53 with C-terminal AviTag and poly-histidine tags (UniProt P29991 281-676, biotinylated on the AviTag for BLI)
T1 chain: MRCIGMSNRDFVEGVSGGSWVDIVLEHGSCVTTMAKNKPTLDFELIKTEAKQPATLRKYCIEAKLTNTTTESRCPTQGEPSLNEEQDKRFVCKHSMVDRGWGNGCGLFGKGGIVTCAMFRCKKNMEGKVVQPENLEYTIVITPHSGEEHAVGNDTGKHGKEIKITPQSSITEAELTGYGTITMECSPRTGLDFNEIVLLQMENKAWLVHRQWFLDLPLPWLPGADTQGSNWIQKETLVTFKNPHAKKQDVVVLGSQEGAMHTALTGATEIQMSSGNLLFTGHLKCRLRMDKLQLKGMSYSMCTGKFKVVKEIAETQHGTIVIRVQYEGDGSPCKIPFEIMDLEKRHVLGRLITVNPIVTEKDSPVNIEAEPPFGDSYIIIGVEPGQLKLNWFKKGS

B1: DENV-2 E (other)
chain: T1 chain
modifications: biotinylated on the AviTag for BLI
B2: MZ4 Fab (Fab, V domains shown)
VH: QVHLQESGPGLVRPSETLSLTCTVSDGSISSYYWSWIRQPPGKGLEWIGSIYYTGSTNYNPSLKSRVTMSVDTSKNQFSLRLNSVTAADTAMYYCAGLDRYSWNEGGDHWGQGILVSVSS
VL: QPVLTQPPSASGTPGQRVSISCSGSRSNLGKNTVNWYQQLPGTAPKLLIYNHSRRPSGVPERFSGSKSGTSASLAISGLQSEDEADYFCAAWDDSLNGLYVFGTGTKVTVLR

Key:
MZ2 = test: BLI; Fab
[1] = molecular target: T1, Recombinant DENV-2 sE (1-396) from …; test: BLI; Fab

| Binder | Kd (MZ2) | Kd [1] |
| --- | --- | --- |
| B1 | 0.4 nM |  |
| B2 |  | 1 nM |
